# Reference: IntAct's records for PubMed 25910212
# B1: Keratin, type II cytoskeletal 6A (Homo sapiens), P02538 (parent)
# chain: MASTSTTIRSHSSSRRGFSANSARLPGVSRSGFSSVSVSRSRGSGGLGGACGGAGFGSRSLYGLGGSKRISIGGGSCAISGGYGSRAGGSYGFGGAGSGFGFGGGAGIGFGLGGGAGLAGGFGGPGFPVCPPGGIQEVTVNQSLLTPLNLQIDPTIQRVRAEEREQIKTLNNKFASFIDKVRFLEQQNKVLETKWTLLQEQGTKTVRQNLEPLFEQYINNLRRQLDSIVGERGRLDSELRGMQDLVEDFKNKYEDEINKRTAAENEFVTLKKDVDAAYMNKVELQAKADTLTDEINFLRALYDAELSQMQTHISDTSVVLSMDNNRNLDLDSIIAEVKAQYEEIAQRSRAEAESWYQTKYEELQVTAGRHGDDLRNTKQEIAEINRMIQRLRSEIDHVKKQCANLQAAIADAEQRGEMALKDAKNKLEGLEDALQKAKQDLARLLKEYQELMNVKLALDVEIATYRKLLEGEECRLNGEGVGQVNISVVQSTVSSGYGGASGVGSGLGLGGGSSYSYGSGLGVGGGFSSSSGRAIGGGLSSVGGGSSTIKYTTTSSSSRKSYKH
# partner: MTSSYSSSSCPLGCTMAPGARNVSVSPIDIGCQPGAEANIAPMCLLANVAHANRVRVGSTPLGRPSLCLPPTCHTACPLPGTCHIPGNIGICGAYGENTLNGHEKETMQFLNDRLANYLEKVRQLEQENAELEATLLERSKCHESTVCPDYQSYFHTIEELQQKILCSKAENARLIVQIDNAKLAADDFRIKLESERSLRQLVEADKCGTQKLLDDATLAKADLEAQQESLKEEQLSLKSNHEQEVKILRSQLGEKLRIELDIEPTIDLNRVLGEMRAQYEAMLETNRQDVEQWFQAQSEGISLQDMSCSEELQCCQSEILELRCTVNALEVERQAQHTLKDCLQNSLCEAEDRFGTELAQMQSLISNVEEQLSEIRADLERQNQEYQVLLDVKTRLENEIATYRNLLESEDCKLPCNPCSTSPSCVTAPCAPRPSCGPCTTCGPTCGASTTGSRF
# B2: Keratin, type II cytoskeletal 6A (Homo sapiens), P02538 (parent)
# chain: B1 chain
# partner: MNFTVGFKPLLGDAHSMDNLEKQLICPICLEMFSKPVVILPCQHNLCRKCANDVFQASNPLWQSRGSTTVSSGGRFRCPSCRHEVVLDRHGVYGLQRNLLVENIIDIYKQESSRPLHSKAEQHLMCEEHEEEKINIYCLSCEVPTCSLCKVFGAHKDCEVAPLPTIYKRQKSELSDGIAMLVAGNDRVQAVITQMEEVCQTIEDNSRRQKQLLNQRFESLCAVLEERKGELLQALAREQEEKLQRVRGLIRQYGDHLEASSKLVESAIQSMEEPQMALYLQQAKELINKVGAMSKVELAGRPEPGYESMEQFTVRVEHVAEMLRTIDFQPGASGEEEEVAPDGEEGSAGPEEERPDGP
# B3: Keratin, type II cytoskeletal 2 epidermal (Homo sapiens), P35908 (parent)
# chain: MSCQISCKSRGRGGGGGGFRGFSSGSAVVSGGSRRSTSSFSCLSRHGGGGGGFGGGGFGSRSLVGLGGTKSISISVAGGGGGFGAAGGFGGRGGGFGGGSSFGGGSGFSGGGFGGGGFGGGRFGGFGGPGGVGGLGGPGGFGPGGYPGGIHEVSVNQSLLQPLNVKVDPEIQNVKAQEREQIKTLNNKFASFIDKVRFLEQQNQVLQTKWELLQQMNVGTRPINLEPIFQGYIDSLKRYLDGLTAERTSQNSELNNMQDLVEDYKKKYEDEINKRTAAENDFVTLKKDVDNAYMIKVELQSKVDLLNQEIEFLKVLYDAEISQIHQSVTDTNVILSMDNSRNLDLDSIIAEVKAQYEEIAQRSKEEAEALYHSKYEELQVTVGRHGDSLKEIKIEISELNRVIQRLQGEIAHVKKQCKNVQDAIADAEQRGEHALKDARNKLNDLEEALQQAKEDLARLLRDYQELMNVKLALDVEIATYRKLLEGEECRMSGDLSSNVTVSVTSSTISSNVASKAAFGGSGGRGSSSGGGYSSGSSSYGSGGRQSGSRGGSGGGGSISGGGYGSGGGSGGRYGSGGGSKGGSISGGGYGSGGGKHSSGGGSRGGSSSGGGYGSGGGGSSSVKGSSGEAFGSSVTFSFR
# partner: B1 partner
# Variants of: B1
# Conditions: with krt38_human KRT38, O76015
row,Variant,effect of a mutation on the interaction
1,MASTSTTIRSHSSSRRGFSANSARLPGVSRSGFSSVSVSRSRGSGGLGGACGGAGFGSRSLYGLGGSKRISIGGGSCAISGGYGSRAGGSYGFGGAGSGFGFGGGAGIGFGLGGGAGLAGGFGGPGFPVCPPGGIQEVTVNQSLLTPLNLQIDPTIQRVRAEEREQIKTLNNKFASFIDKVRFLEQQNKVLETKWTLLQEQGTKTVRQNLEPLFEQYINNLRRQLDSIVGERGRLDSELRGMQDLVEDFKNKYEDEINKRTAAENEFVTLKKDVDAAYMNKVELQAKADTLTDEINFLRALYDAELSQMQTHISDTSVVLSMDNNRNLDLDSIIAEVKAQYEEIAQRSRAEAESWYQTKYEELQVTAGRHGDDLRNTKQEIAEINRMIQRLRSEIDHVKKQCANLQAAIADAEQRGEMALKDAKNKLEGLEDALQKAKQDLARLLKEYQELMNVKLALDVEIATYRKLLEGEECRLNGEGVGQVNISVVQSTVSSGYGGASGVGSGLGLGGGSSYSYGSGLGFGGGFSSSSGRAIGGGLSSVGGGSSTIKYTTTSSSSRKSYKH [V523F],with no effect

# Variants of: B2
# Conditions: with tri54_human TRIM54, Q9BYV2
row,Variant,effect of a mutation on the interaction
1,MASTSTTIRSHSSSRRGFSASSARLPGVSRSGFSSVSVSRSRGSGGLGGACGGAGFGSRSLYGLGGSKRISIGGGSCAISGGYGSRAGGSYGFGGAGSGFGFGGGAGIGFGLGGGAGLAGGFGGPGFPVCPPGGIQEVTVNQSLLTPLNLQIDPTIQRVRAEEREQIKTLNNKFASFIDKVRFLEQQNKVLETKWTLLQEQGTKTVRQNLEPLFEQYINNLRRQLDSIVGERGRLDSELRGMQDLVEDFKNKYEDEINKRTAAENEFVTLKKDVDAAYMNKVELQAKADTLTDEINFLRALYDAELSQMQTHISDTSVVLSMDNNRNLDLDSIIAEVKAQYEEIAQRSRAEAESWYQTKYEELQVTAGRHGDDLRNTKQEIAEINRMIQRLRSEIDHVKKQCANLQAAIADAEQRGEMALKDAKNKLEGLEDALQKAKQDLARLLKEYQELMNVKLALDVEIATYRKLLEGEECRLNGEGVGQVNISVVQSTVSSGYGGASGVGSGLGLGGGSSYSYGSGLGVGGGFSSSSGRAIGGGLSSVGGGSSTIKYTTTSSSSRKSYKH [N21S],with no effect
2,MASTSTTIRSHSSSRRGFSANSARLPGVSRSGFSSVSVSRSRGSGGLGGACGGAGFGSRSLYGLGGSKRISIGGGSCAISGGYGSRAGGSYGFGGAGSGFGFGGGAGIGFGLGGGAGLAGGFGGPGFPVCPPGGIQEVTVNQSLLTPLNLQIDPTIQRVRAEEREQIKTLNNKFASFIDKVRFLEQQNKVLETKWTLLQEQGTKTVRQNLEPLFEQYINNLRRQLDSIVGERGRLDSELRGMQDLVEDLKNKYEDEINKRTAAENEFVTLKKDVDAAYMNKVELQAKADTLTDEINFLRALYDAELSQMQTHISDTSVVLSMDNNRNLDLDSIIAEVKAQYEEIAQRSRAEAESWYQTKYEELQVTAGRHGDDLRNTKQEIAEINRMIQRLRSEIDHVKKQCANLQAAIADAEQRGEMALKDAKNKLEGLEDALQKAKQDLARLLKEYQELMNVKLALDVEIATYRKLLEGEECRLNGEGVGQVNISVVQSTVSSGYGGASGVGSGLGLGGGSSYSYGSGLGVGGGFSSSSGRAIGGGLSSVGGGSSTIKYTTTSSSSRKSYKH [F249L],with no effect

# Variants of: B3
# Conditions: with krt38_human KRT38, O76015
row,Variant,effect of a mutation on the interaction
1,L484P,with no effect
2,I477N,disrupting interaction strength
3,N186K,with no effect

# Variants of: B3
# Conditions: with krt38_human KRT38, O76015
# Remark: another data set of the same source
row,Variant,effect of a mutation on the interaction
1,G219D,with no effect
